Laboratory results from patent publication US20240034804A1 (BIORAY PHARMACEUTICAL, published 2024).
Each block holds one molecule with its values, some of them ahead of it.

Legend:
[1] = biological target: SIRPα protein (Acrobiosystems, Cat. No. SIA-H5225), V1 genotype (human) (UniProt P78324); test: BLI (Octet Red96), SIRPα captured on H1S1K biosensor, antibody as analyte, 1:1 fit
[2] = biological target: membrane SIRPα on THP-1 cells (human myeloid leukemia monocytes endogenously expressing SIRPα) (human) (UniProt P78324); test: cell-based or functional assay
[3] = biological target: biotin-labeled SIRPα (V2) (Acrobiosystems, Cat. No. SI2-H82W8) (human, UniProt P78324 31-370, biotin-labeled (site not stated)); test: competition ELISA (FIG. 4C), blocking of biotin-labeled SIRPα (V2) binding to coated CD47-Fc
Procedure: (§1) 96-well plates were coated with CD47-Fc (manufacturer: Acrobiosystems, Cat. No. CD7-H5256) at 4° C. overnight. Plates were washed and blocked with 1% BSA-PBST blocking solution. […] After a 1 h incubation at 37° C., plates were washed and HRP-labeled streptavidin (manufacturer: Abcam, Cat. No.: ab7403) was added. After a 0.5 h incubation at 37° C., plates were washed and TMB solution was added. After a 0.5 h incubation at room temperature in the dark, the reaction was terminated by adding 2 N H₂SO₄. Absorbance was read at 450 nm on a microplate reader. IgG (manufacturer: GenScript) was used as the control.
(§2) The antibodies were 3-fold serially diluted from 200 nM and a total of nine concentration gradients were prepared.

[4] = biological target: biotin-labeled SIRPα (V8) (Acrobiosystems, Cat. No. SI8-H82W6) (human, UniProt P78324 31-370, biotin-labeled (site not stated)); test: competition ELISA (FIG. 4D), blocking of biotin-labeled SIRPα (V8) binding to coated CD47-Fc
Procedure: as §1, §2

[5] = biological target: T1, SIRPα protein (Acrobiosystems, Cat. No. SIA-H5225), V1 genotype (human, UniProt P78324 31-370); test: ELISA, coated SIRPα (SIA-H5225)
T1 construct: Bought protein; also called recombinant SIRPα protein; antigen SIRPα
Procedure: The plates were then blocked with 1% BSA-PBS blocking solution for 1 h at 37° C. Plates were washed with PBST. The humanized antibodies were diluted to different concentrations (3-fold serially diluted from 66.7 nM, 11 concentration gradients in total) and added to the plates. After a 1 h incubation at 37° C., plates were washed and HRP-labeled goat anti-human IgG (manufacturer: Abcam, Cat. No. Ab98595, 1:10000 dilution) was added. After a 0.5 h incubation at 37° C., plates were washed and TMB solution was added. After a 5 min incubation at room temperature in the dark, the reaction was terminated by adding 2 N H₂SO₄. Absorbance was read at 450 nm on a microplate reader.

[6] = biological target: T1, SIRPα protein (Acrobiosystems, Cat. No. …); test: BLI (Octet Red96), SIRPα captured on H1S1K biosensor, antibody as analyte, 1:1 fit
[7] = biological target: T2, biotin-labeled SIRPα (Acrobiosystems, Cat. No. CDA-H82F2), V1 genotype (human, UniProt P78324 31-370, biotin-labeled (site not stated)); test: competition ELISA, blocking of biotin-labeled SIRPα binding to coated CD47-Fc (competitor CD47-Fc)
T2 construct: Bought protein; also called SIRPα (V1)
Procedure: as §1

[8] = biological target: T2, biotin-labeled SIRPα (Acrobiosystems, …); test: competition ELISA (FIG. 4A), blocking of biotin-labeled SIRPα (V1) binding to coated CD47-Fc; FIG. 4A, run beside KWAR23
Procedure: as §1
(§3) The antibodies were 2-fold serially diluted from 83.4 nM and a total of nine concentration gradients were prepared.

[9] = biological target: T2, biotin-labeled SIRPα (Acrobiosystems, …); test: competition ELISA (FIG. 4B), blocking of biotin-labeled SIRPα (V1) binding to coated CD47-Fc; FIG. 4B, run beside 18D5 and 1H9
Procedure: as §1, §3

[10] = biological target: T2, biotin-labeled SIRPα (Acrobiosystems, …); test: competition ELISA (FIG. 4B), blocking of biotin-labeled SIRPα (V1) binding to coated CD47-Fc

- Kd [1]: 0.0509 nM
Molecule: KWAR23 (antibody)

- Endocytosis rate (%) [2]: 34.7%
- IC50 [3]: 6.4 nM
- IC50 [4]: 10.8 nM
B1: KWAR23 (antibody, V domains shown)
VH: EVQLQQSGAELVKPGASVKLSCTASGFNIKDYYIHWVQQRTEQGLEWIGRIDPEDGETKYAPKFQDKATITADTSSNTAYLHLSSLTSEDTAVYYCARWGAYWGQGTLVTVSS
VL: QIVLTQSPAIMSASPGEKVTLTCSASSSVSSSYLYWYQQKPGSSPKLWIYSTSNLASGVPARFSGSGSGTSYSLTISSMEAEDAASYFCHQWSSYPRTFGAGTKLELK

- EC50 [5]: 0.683 nM
- Kd [6]: 0.0217 nM
- IC50 [3]: 7.8 nM
- IC50 [4]: 11.5 nM
- IC50 [7]: 0.132 nM
- IC50 [8]: 3.4 nM
- IC50 [9]: 4.4 nM
B2: #14 antibody (humanized anti-SIRPα antibody) (antibody, human IgG1, kappa, N297A, V domains shown)
VH: QVQLQESGPGLVKPSQTLSLTCTVSGGSISSGYYWSWIRQHPGKGLEWIGYISYDGSRYNNPSLKNRVTISVDTSKNQFSLKLSSVTAADTAVYYCAREEYANYFAYWGQGTTVTVSS
VL: DIVMTQSPDSLAVSLGERATINCKSSQSLFYSSNQKNFLAWYQQKPGQPPKLLIYWASTRESGVPDRFTGSGSGTDFTLTISSVKAEDLAVYYCQQYYSYPPTFGQGTKLEIKR

- IC50 [10]: 4.2 nM
B3: 1H9 (antibody, V domains shown)
VH: QVQLQQPGAERVKPGASVKMSCKASGYTFTSYWITWVKQRPGQGLEWIGDIYPGSGSTNHIEKFKSKATLTVDTSSNTAYMQLSRLTSEDSAVYYCATGYGSSYGYFDYWGQGTTLTVSS
VL: DIQMTQSPASLSASVGETVTITCRASENIYSYLAWYQQKQGKSPQLLVYTAKTLAEGVPSRFSGSGSGTQFSLKINSLQPEDFGNYYCQHQYGPPFTFGSGTRLVIK

- IC50 [10]: 4.1 nM
B4: 18D5 (antibody, V domains shown)
VH: QVQLQQPGAELVRPGSSVKLSCKASGYTFTSYWVHWVKQRPIQGLEWIGNIDPSDSDTHYNQKFKDKASLTVDKSSSTAYMQLSSLTFEDSAVYYCVRGGTGTMAWFAYWGQGTLVTVSA
VL: DVVMTQTPLSLPVSLGDQASISCRSSQSLVHSYGNTYLYWYLQKPGQSPKLLIYRVSNRFSGVPDRFSGSGSGTDFTLKISRVEAEDLGVYFCFQGTHVPYTFGSGTKLEIK

- EC50 [5]: 1.83 nM
- IC50 [7]: 6.03 nM
B5: #4 antibody (humanized anti-SIRPα antibody) (antibody, V domains shown)
VH: EVQLVQSGAEVKKPGATVKISCRGSGFNIKDYYIQWVQQAPGKGLEWMGWIDPENGDTKYAPKFQGRVTITADTSTDTAYMELSSLRSEDTAVYYCYAKGPYWGQGTTLTVSS
VL: DIVMTQSPDSLAVSLGERATINCKSSQSLFYSSNQKNFLAWYQQKPGQPPKLLIYWASTRESGVPDRFTGSGSGTDFTLTISSVKAEDLAVYYCQQYYSYPPTFGGGTKLEIK
notes: Full antibody as tested

- EC50 [5]: 0.464 nM
- IC50 [7]: 0.209 nM
B6: #11 antibody (humanized anti-SIRPα antibody) (antibody, V domains shown)
VH: QVTLKESGPVLVKPTETLTLTCTVSGFSLSSHGVHWIRQPPGKALEWLAVIWSDGSTTYNSTLKSRLTISKDTSKSQVVLTMTNMDPVDTATYYCARHGNYHYNMDYWGQGTLVTVSS
VL: DIQLTQSPSFLSASVGDRVTITCRTSSRVNSGYLHWYQQKPGKAPKLLIYSTSTLASGVPSRFSGSGSGTEFTLTISSLQPEDFATYYCQQYSSYPWTFGGGTKLEIK
notes: Full antibody as tested

- EC50 [5]: 0.952 nM
- IC50 [7]: 1.5 nM
B7: #13 antibody (humanized anti-SIRPα antibody) (antibody, V domains shown)
VH: QVQLVQSGSELKKPGASVKVSCKASGYTFTDYSIHWVRQAPGQGLEWMGWINTETGEPTYADDFKGRFVFSLDTSVSTAYLQICSLKAEDTAVYYCSRGPLYRYDGYGLEYWGQGTLVTVSS
VL: DIVMTQSPDSLAVSLGERATINCKASQSVSNDVAWYQQKPGQPPKLLIYYASNRCTGVPDRFSGSGSGTDFTLTISSLQAEDVAVYYCHQDYISPYTFGGGTKLEIK
notes: Full antibody as tested
